Experimental data published in PMC2614139.

Target: GCaMP2 (original protein with the N-terminal hexahistidine tag and RSET module) (not stated | Aequorea victoria)
Experiment: AUC

stoichiometry N: 2
Substance: GCaMP2 (original protein with the N-terminal hexahistidine tag and RSET module)
